The text below walks through data of publication PMC8405996, “A structurally preserved allosteric site in the MIF superfamily affects enzymatic activity and CD74 activation in D-dopachrome tautomerase” (The Journal of Biological Chemistry, 2021).

The series deals with the molecule itself. In words: crystal structure; hanging-drop vapor diffusion at 20 °C; diffraction data at 100 K; molecular replacement; trimer of MIF-2 in the crystal.

As usually defined, the stoichiometry N is the number of molecules, sites or subunits per partner or assembly.

Changes are numbered by the printed parent chain. Numbers in names are those of the source.

B1: D-dopachrome tautomerase (MIF-2), wild type (enzyme, human, UniProt P30046 1-118, looked up)
chain: MPFLELDTNLPANRVPAGLEKRLCAAAASILGKPADRVNVTVRPGLAMALSGSTEPCAQLSISSIGVVGTAEDNRSHSAHFFEFLTKELALGQDRILIRFFPLESWQIGKIGTVMTFL
notes: human D-dopachrome tautomerase (MIF-2), monomer of 117 amino acids with the catalytic Pro1 at the N terminus (initiating Met removed); Homotrimer; no tag is named; also called wt-MIF-2; DDT; source: E. coli BL21-Gold (DE3), purified (Q-Sepharose, Superdex 75)
As for B1, the “stoichiometry N” value is 3.

B2: MIF-2 P1G variant (enzyme, human, UniProt P30046 1-118, looked up)
chain: B1 chain with P2G
notes: human D-dopachrome tautomerase (MIF-2) with P1G; the initiating Met was found kept in this variant (not cleaved in E. coli), so the chain begins Met-Gly1; also called P1G MIF-2; source: E. coli BL21-Gold (DE3), purified (Q-Sepharose, Superdex 75)
Consider B2, for which the binding result was “binds”.
